{"source": "patent US20100143379A1", "about": "(priority 2005, published 2010)", "molecules": {"B1": {"name": "MIF: macrophage migration inhibitory factor; recombinant mouse or human MIF purified essentially free of endotoxin (protein)", "chain": "PMFIVNTNVPRASVPDGFLSELTQQLAQATGKPPQYIAVHVVPDQLMAFGGSSEPCALCSLHSIGKIGGAQNRSYSKLLCGLLAERLRISPDRVYINYYDMNAANVGWNNSTFA"}}, "key": {"[1]": {"system": "murine bone marrow progenitor cultures", "experiment": "BFU-E and CFU-E erythropoietin-dependent progenitor colony assays", "assay_type": "cell-based", "settings": "10-100 ng/ml MIF, 1-20 ng/ml TNFα, or 10-100 U/ml IFNγ", "description": "Bone marrow cells were harvested, plated in a methylcellulose-based medium, and colony numbers scored after the addition of murine cytokines. Individual assays were performed in duplicate, and the data shown is a compilation of 3-6 independently performed experiments. % inhibition of colony formation is calculated with reference to a cytokine-minus control. All values shown are the mean±SD and are significant when compared to wells with no cytokine addition (P<0.05). CFU-E: colony forming unit—erythroid; BFU-E: burst-forming unit—erythroid.\nThe two inflammatory cytokines, TNFα and IFNγ, were also studied. TNFα and IFNγ are produced as a consequence of macrophage and T cell activation (McDevitt et al. 2004. Curr Hematol Rep 3:97-106). The appearance of BFU-E and CFU-E were quantified after culture with these cytokines, applied either alone or in combination.\nBFU-E and CFU-E Progenitor Cell Assays. The progenitor cell (colony) assays were performed according to the standardized methods described previously (Martiney et al. 2000. Infection and Immunity 68:2259-2267) and protocols from StemCell Technologies (Vancouver; BC, Canada). Briefly, washed murine bone marrow cells were plated in sterile 35-mm dishes containing a methylcellulose-based medium and growth factors. The total number of bone marrow cells plated in duplicate culture dishes were as follows: 2×10^5 for CFU-E and 5×10^5 for BFU-E. MethoCult™ M3334 was utilized for the CFU-E and BFU-E colony assays. The media for CFU-E and BFU-E was volume adjusted by adding 1 part Isocove's MDM to 9 parts MethoCult™ M3334 to give final concentrations of the following components: 15% fetal bovine serum, 1% BSA, […] transferrin, […] insulin, 1% methylcellulose, 10^−4 M 2-mercaptoethanol, 2 mM L-glutamine and 3 units/ml erythropoietin. Each assay of different bone marrow progenitor cells was performed independently 3-6 times."}, "p56^lck": {"system": "p56^lck", "experiment": "Tyrosine kinase phosphorylation in COS-7/M6 transformants and MEFs (immunoblot)", "assay_type": "cell-based", "settings": "only in the cells expressing both CD74 and full-length CD44", "experimental": "Cells then were harvested and lysed in buffer containing 50 mM Hepes, pH7.5, 150 mM NaCl, 1.5 mM MgCl2, 1 mM EGTA, 1% Glycerol and 1% Triton X-100, and freshly added phosphatase and proteinase inhibitors (1 mM orthovanandate, 10 mM NaF, 10 μg/ml leupeptin, 25 μg/ml aprotinin and 50 μg/ml PMSF). For immunoblotting, 15-20 μg of cell lysate proteins were separated by 10% SDS-PAGE and transferred to PVDF Immobilon-P transfer membranes (Millipore). The blots were developed with specific primary antibodies that included a pair of anti-phospho-ERK-1/2 (sc-7383, Santa Cruz) and anti-(total) ERK-1/2 (sc-94, Santa Cruz) antibodies, a pair of anti-phospho-p56^lck (Cell Signaling) and anti-(total) p56^lck (sc-433, Santa Cruz) antibodies, or a pair of anti-phospho-Src and anti-(total) Src antibodies (Cell Signaling). The secondary antibodies included anti-mouse IgG or anti-rabbit IgG conjugated with horseradish peroxidase (Cell Signaling). The ECL detection reagents (Amersham) were used to visualize bands.\nCell lysates were collected and analyzed by immunoblots using a pair of anti-phospho-PICA and anti-(total)-PKA antibodies, a pair of anti-phospho-PKC (all from Cell Signaling) and anti-(total)-PKC (Santa Cruz) antibodies, or a pair of anti-phospho-p56^lck (Cell Signaling) and anti-(total) p56^lck (sc-433, Santa Cruz) antibodies."}, "Src": {"system": "Src", "experiment": "Tyrosine kinase phosphorylation in COS-7/M6 transformants and MEFs (immunoblot)", "assay_type": "cell-based", "settings": "COS-7 transformants and MEFs", "from_the_text": "Two members of the non-receptor, protein tyrosine kinase family, p56^lck and c-Src (Src), may physically associate with the intracytoplasmic domain of CD44 (Elaimin I. Taher (1996). J. Biol. Chem. 271:2863-2867 and Bourguignon et al. (2001). J. Biol. Chem. 276:7327-7336), and either kinase may lead to downstream ERK1/2 phosphorylation via a Ras-Raf-MEK-dependent pathway (Ishida et al. (1998). Circ Res 82:7-12; Migliaccio et al. (2000). EMBO J. 19:5406-5417; and Mahabeleshwar et al. (2003). J. Biol. Chem. 278:52598-52612). […] The level of p56^lck phosphorylation appeared less in the MEFs than in the COS-7 cells, which may be attributed to the lower level of expression of the p56^lck kinase in cells of fibroblast lineage (Oikawa et al. (2001). Immunol. 104:162-167), or to a higher activation and coupling efficiency of CD44 when over-expressed in COS-7 cells.\nSignal Transduction Assays. […] The human CD74 ectodomain (CD74^73-232) was prepared recombinantly in soluble form (sCD74) as described previously (Leng et al. (2003). J Exp Med 197:1467-1476). […] Cells then were harvested and lysed in buffer containing 50 mM Hepes, pH7.5, 150 mM NaCl, 1.5 mM MgCl2, 1 mM EGTA, 1% Glycerol and 1% Triton X-100, and freshly added phosphatase and proteinase inhibitors (1 mM orthovanandate, 10 mM NaF, 10 μg/ml leupeptin, 25 μg/ml aprotinin and 50 μg/ml PMSF). […]"}, "primary macrophages": {"system": "primary macrophages", "experiment": "In vitro apoptosis, primary macrophages", "assay_type": "cell-based, mouse", "settings": "MIF 100 ng/ml; dependent on CD74 and CD44", "from_the_text": "Mice and Primary Cells. Wild-type (BALB/c or C57/B16), CD74-KO, (Shachar et al. (1996). Science 274:106-108), CD44-KO (Teder et al, (2002). Science 296:155-158), and MIF-KO (Bozza et al. (1999). J Exp Med 189:341-346), mice were bred at the Yale Animal Resource Center under strict, pathogen-free conditions. The KO strains were in genetically pure BALB/c or C57/B16 backgrounds (each at generation ≧N10). Mouse embryonic fibroblasts (MEFs) were obtained from 2 week-old embryos as described (Fingerle-Rowson et al. (2003). Proc Natl Acad Sci USA 100:9354-9359). […]\nApoptosis Studies. […] Cell lysates were collected, and caspase-3 activity analyzed using a colorimetric assay kit (R&D Systems). Cytoplasmic p53 content was analyzed as described previously (Mitchell et al. (2002). Proc Natl Acad Sci USA 99:345-350) by immunoblotting of mouse cytosolic fractions using a pair of anti-phospho-p53 (Ser15) (R&D Systems) and total anti-p53 antibodies (Cell Signaling); and for COS-7 cells, the anti-p53 (Ser15) and total anti-p53 antibodies (Cell Signaling). […] Mice were sacrificed 24 hrs after priming and the peritoneal macrophage cells collected and immediately analyzed for apoptosis by an ELISA that detects cytoplasmic oligonucleosomes (Roche Diagnostics). Primary macrophages also were immunostained by Alexa 488-conjugated, Annexin V (Invitrogen), and apoptotic cells enumerated by fluorescence microscopy."}, "p53 [2]": {"system": "p53", "experiment": "Cytoplasmic Ser15-phosphorylated p53 content, COS-7 cells", "assay_type": "cell-based", "settings": "during apoptosis induction", "description": "(§1) Apoptosis Studies. […] Cell lysates were collected, and caspase-3 activity analyzed using a colorimetric assay kit (R&D Systems). Cytoplasmic p53 content was analyzed as described previously (Mitchell et al. (2002). Proc Natl Acad Sci USA 99:345-350) by immunoblotting of mouse cytosolic fractions using a pair of anti-phospho-p53 (Ser15) (R&D Systems) and total anti-p53 antibodies (Cell Signaling); and for COS-7 cells, the anti-p53 (Ser15) and total anti-p53 antibodies (Cell Signaling). In vivo apoptosis studies followed the procedures of (Mitchell et al. (2002). Proc Natl Acad Sci USA 99:345-350), and were conducted after i.p injection of 15 mg/kg lipopolysaccharide (E. coli 0111:B4; Sigma). Mice were sacrificed 24 hrs after priming and the peritoneal macrophage cells collected and immediately analyzed for apoptosis by an ELISA that detects cytoplasmic oligonucleosomes (Roche Diagnostics). Primary macrophages also were immunostained by Alexa 488-conjugated, Annexin V (Invitrogen), and apoptotic cells enumerated by fluorescence microscopy."}, "p53 [3]": {"system": "p53", "experiment": "Ser15-phosphorylated p53 content, macrophages", "assay_type": "cell-based, mouse", "settings": "during apoptosis induction", "description": "as §1"}}, "data": [{"molecule": "B1", "values": [{"measurement": "BFU-E and CFU-E colony formation", "setting": "[1]", "value": "dose-dependently inhibited"}, {"measurement": "p56^lck phosphorylation", "setting": "p56^lck", "value": "phosphorylated by MIF treatment"}, {"measurement": "Src phosphorylation", "setting": "Src", "value": "An increase in the phosphorylation of the Src kinase was not detected"}, {"measurement": "protection from apoptosis", "setting": "primary macrophages", "value": "almost complete"}, {"measurement": "intracytoplasmic content of Ser15-phosphorylated p53", "setting": "p53 [2]", "value": "reduction in the intracytoplasmic content"}, {"measurement": "cellular content of Ser15-phosphorylated p53", "setting": "p53 [3]", "value": "diminution in the cellular content"}]}]}
